# According to the supplement of paper PMC9112550, “Optimization of the antimicrobial peptide Bac7 by deep mutational scanning” (BMC Biology, 2022):
# Test system: Escherichia coli TOP10
# Assay: shrunken log2 fold change of peptide-encoding DNA abundance (4.5 h post-induction vs induction); higher = less antimicrobial activity (less host growth inhibition)
# Details: time post-induction: 4.5 h; library: site-saturation at positions 5, 18, 19, 20
# 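Also: peptides expressed intracellularly from a pBAD plasmid library in pooled LB shake-flask culture, induced with 0.3% L-arabinose, DNA abundance read by NGS, three biological replicates, DESeq2 with apeglm shrinkage.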
row,Sequence,shrunken log2 fold change
1,RRIRCRPPRLPRPRPRPWHTPRP,-0.261
2,RRIRYRPPRLPRPRPRPKCCPRP,0.013
3,RRIRCRPPRLPRPRPRPTGAPRP,0.419
4,RRIRVRPPRLPRPRPRPRWWPRP,0.0125
5,RRIRMRPPRLPRPRPRPLITPRP,0.0495
6,RRIRKRPPRLPRPRPRPNYPPRP,-0.175
7,RRIRSRPPRLPRPRPRPPRRPRP,0.701
8,RRIRNRPPRLPRPRPRPFMVPRP,-0.646
9,RRIRGRPPRLPRPRPRPECCPRP,1.52
10,RRIRERPPRLPRPRPRPNTLPRP,-0.556
11,RRIRMRPPRLPRPRPRPQAVPRP,0.442
12,RRIRIRPPRLPRPRPRPLRYPRP,-0.409
13,RRIRPRPPRLPRPRPRPFWHPRP,-0.017
14,RRIRIRPPRLPRPRPRPDALPRP,-0.206
15,RRIRYRPPRLPRPRPRPDRGPRP,-0.213
16,RRIRNRPPRLPRPRPRPNECPRP,-0.124
17,RRIRNRPPRLPRPRPRPCIPPRP,-0.0387
18,RRIRHRPPRLPRPRPRPQHCPRP,-0.503
19,RRIRNRPPRLPRPRPRPRNAPRP,0.0122
20,RRIRHRPPRLPRPRPRPKDLPRP,-0.0584
21,RRIRPRPPRLPRPRPRPRPWPRP,0.212
22,RRIRTRPPRLPRPRPRPWHMPRP,0.0039
23,RRIRVRPPRLPRPRPRPKTSPRP,-0.128
24,RRIRDRPPRLPRPRPRPLWDPRP,-0.0822
25,RRIRMRPPRLPRPRPRPKCMPRP,0.745

row,Sequence,shrunken log2 fold change
1,RRIRQRPPRLPRPRPRPHSIPRP,0.0425
2,RRIRDRPPRLPRPRPRPNKWPRP,-0.0744
3,RRIRERPPRLPRPRPRPTSEPRP,0.0668
4,RRIRFRPPRLPRPRPRPHTHPRP,-0.618
5,RRIRKRPPRLPRPRPRPDEVPRP,1.1
6,RRIRIRPPRLPRPRPRPREDPRP,-0.036
7,RRIRTRPPRLPRPRPRPGKTPRP,-0.0222
8,RRIRWRPPRLPRPRPRPCMFPRP,-0.244
9,RRIRFRPPRLPRPRPRPAFAPRP,0.33
10,RRIRVRPPRLPRPRPRPPAHPRP,0.231
11,RRIRFRPPRLPRPRPRPVRRPRP,0.122
12,RRIRARPPRLPRPRPRPGRDPRP,0.671
13,RRIRMRPPRLPRPRPRPHIDPRP,0.29
14,RRIRRRPPRLPRPRPRPRSMPRP,0.468
15,RRIRPRPPRLPRPRPRPQNSPRP,-0.469
16,RRIRRRPPRLPRPRPRPSYNPRP,-0.16
17,RRIRKRPPRLPRPRPRPKGIPRP,0.106
18,RRIRTRPPRLPRPRPRPEDHPRP,-0.0554
19,RRIRCRPPRLPRPRPRPHTPPRP,0.0337
20,RRIRRRPPRLPRPRPRPMFQPRP,0.155
21,RRIRQRPPRLPRPRPRPYLHPRP,-0.117
22,RRIRKRPPRLPRPRPRPKNSPRP,-0.0637
23,RRIRDRPPRLPRPRPRPLPQPRP,0.282
24,RRIRFRPPRLPRPRPRPFSHPRP,-1.36
25,RRIRGRPPRLPRPRPRPMKSPRP,0.206

row,Sequence,shrunken log2 fold change
1,RRIRARPPRLPRPRPRPPHQPRP,0.952
2,RRIRVRPPRLPRPRPRPNWPPRP,0.282
3,RRIRFRPPRLPRPRPRPVACPRP,-0.347
4,RRIRNRPPRLPRPRPRPEFCPRP,0.0216
5,RRIRMRPPRLPRPRPRPNSLPRP,-0.0986
6,RRIRRRPPRLPRPRPRPHGFPRP,0.114
7,RRIRNRPPRLPRPRPRPNFPPRP,-0.0305
8,RRIRGRPPRLPRPRPRPDVVPRP,0.424
9,RRIRTRPPRLPRPRPRPQKEPRP,0.0092
10,RRIRKRPPRLPRPRPRPWFTPRP,-0.00863
11,RRIRYRPPRLPRPRPRPWTNPRP,-0.00804
12,RRIRYRPPRLPRPRPRPHCAPRP,-0.544
13,RRIRYRPPRLPRPRPRPYQIPRP,-0.659
14,RRIRNRPPRLPRPRPRPAANPRP,0.487
15,RRIRRRPPRLPRPRPRPKRIPRP,0.191
16,RRIRWRPPRLPRPRPRPSPWPRP,0.0588
17,RRIRQRPPRLPRPRPRPYGVPRP,-0.0132
18,RRIRTRPPRLPRPRPRPRHEPRP,-0.13
19,RRIRKRPPRLPRPRPRPRIQPRP,0.475
20,RRIRPRPPRLPRPRPRPILQPRP,-0.224
21,RRIRGRPPRLPRPRPRPPMIPRP,-0.0528
22,RRIRCRPPRLPRPRPRPQNWPRP,-0.0693
23,RRIRHRPPRLPRPRPRPGMMPRP,0.00873
24,RRIRQRPPRLPRPRPRPMCKPRP,-0.0652
25,RRIRERPPRLPRPRPRPDQKPRP,-0.0097

row,Sequence,shrunken log2 fold change
1,RRIRPRPPRLPRPRPRPCLMPRP,-0.393
2,RRIRNRPPRLPRPRPRPQVTPRP,-0.134
3,RRIRHRPPRLPRPRPRPPCEPRP,0.00703
4,RRIRQRPPRLPRPRPRPDKHPRP,-0.205
5,RRIRERPPRLPRPRPRPQKWPRP,-0.473
6,RRIRGRPPRLPRPRPRPYLEPRP,0.296
7,RRIRPRPPRLPRPRPRPQDTPRP,-0.229
8,RRIRDRPPRLPRPRPRPNDTPRP,0.0133
9,RRIRPRPPRLPRPRPRPQQDPRP,-0.301
10,RRIRWRPPRLPRPRPRPKGKPRP,-0.00191
11,RRIRKRPPRLPRPRPRPVPCPRP,0.0663
12,RRIRNRPPRLPRPRPRPFGIPRP,-0.0138
13,RRIRVRPPRLPRPRPRPYARPRP,-0.243
14,RRIRERPPRLPRPRPRPRLYPRP,-0.448
15,RRIRMRPPRLPRPRPRPSDYPRP,0.0806
16,RRIRNRPPRLPRPRPRPCIDPRP,0.027
17,RRIRIRPPRLPRPRPRPSSTPRP,-0.955
18,RRIRKRPPRLPRPRPRPFPSPRP,0.175
19,RRIRMRPPRLPRPRPRPWSYPRP,0.206
20,RRIRPRPPRLPRPRPRPLAVPRP,0.161
21,RRIRPRPPRLPRPRPRPQGYPRP,-0.0854
22,RRIRIRPPRLPRPRPRPWQPPRP,-0.0185
23,RRIRWRPPRLPRPRPRPNSVPRP,-0.325
24,RRIRGRPPRLPRPRPRPTPEPRP,0.917
25,RRIRTRPPRLPRPRPRPYIYPRP,-0.706

row,Sequence,shrunken log2 fold change
1,RRIRFRPPRLPRPRPRPCVFPRP,-0.0936
2,RRIRIRPPRLPRPRPRPLMPPRP,1.27
3,RRIRLRPPRLPRPRPRPESMPRP,0.191
4,RRIRLRPPRLPRPRPRPNKMPRP,-0.158
5,RRIRIRPPRLPRPRPRPHHHPRP,-0.719
6,RRIRPRPPRLPRPRPRPVDVPRP,-0.0323
7,RRIRCRPPRLPRPRPRPWPEPRP,-0.15
8,RRIRSRPPRLPRPRPRPEAMPRP,1.09
9,RRIRLRPPRLPRPRPRPLMRPRP,0.807
10,RRIRQRPPRLPRPRPRPWTAPRP,-0.264
11,RRIRQRPPRLPRPRPRPINHPRP,0.147
12,RRIRGRPPRLPRPRPRPMTQPRP,0.28
13,RRIRRRPPRLPRPRPRPQMGPRP,0.231
14,RRIRQRPPRLPRPRPRPWIVPRP,-0.0927
15,RRIRRRPPRLPRPRPRPKYLPRP,-0.042
16,RRIRRRPPRLPRPRPRPCQHPRP,-0.153
17,RRIRNRPPRLPRPRPRPMFWPRP,0.0282
18,RRIRYRPPRLPRPRPRPTRWPRP,0.211
19,RRIRPRPPRLPRPRPRPHTKPRP,0.00533
20,RRIRTRPPRLPRPRPRPRYWPRP,-0.156
21,RRIRVRPPRLPRPRPRPMYMPRP,-0.748
22,RRIRFRPPRLPRPRPRPVEYPRP,-0.109
23,RRIRGRPPRLPRPRPRPAMWPRP,1.02
24,RRIRNRPPRLPRPRPRPEPNPRP,0.0829
25,RRIRSRPPRLPRPRPRPQMSPRP,-0.0374

row,Sequence,shrunken log2 fold change
1,RRIRERPPRLPRPRPRPMYPPRP,-0.0412
2,RRIRFRPPRLPRPRPRPDGNPRP,-0.174
3,RRIRDRPPRLPRPRPRPAAYPRP,0.174
4,RRIRQRPPRLPRPRPRPETWPRP,0.00978
5,RRIRPRPPRLPRPRPRPAGWPRP,0.765
6,RRIRDRPPRLPRPRPRPPIAPRP,-0.0649
7,RRIRERPPRLPRPRPRPVCYPRP,-0.266
8,RRIRCRPPRLPRPRPRPNDFPRP,-0.241
9,RRIRCRPPRLPRPRPRPGPVPRP,0.239
10,RRIRMRPPRLPRPRPRPYCVPRP,0.117
11,RRIRVRPPRLPRPRPRPKLVPRP,0.194
12,RRIRRRPPRLPRPRPRPRCCPRP,0.43
13,RRIRKRPPRLPRPRPRPYLHPRP,-0.31
14,RRIRMRPPRLPRPRPRPYMGPRP,-0.0411
15,RRIRSRPPRLPRPRPRPCCVPRP,0.0729
16,RRIRMRPPRLPRPRPRPNTYPRP,-0.0596
17,RRIRTRPPRLPRPRPRPAFGPRP,0.155
18,RRIRVRPPRLPRPRPRPGWTPRP,0.202
19,RRIRARPPRLPRPRPRPQHPPRP,0.29
20,RRIRRRPPRLPRPRPRPQYIPRP,0.0837
21,RRIRGRPPRLPRPRPRPPGCPRP,0.895
22,RRIRPRPPRLPRPRPRPLVAPRP,0.101
23,RRIRLRPPRLPRPRPRPDVSPRP,0.0432
24,RRIRSRPPRLPRPRPRPGSGPRP,0.32
25,RRIRIRPPRLPRPRPRPDFGPRP,-0.196
